According to PMC8036949, “Investigation of the Interaction of Human Origin Recognition Complex Subunit 1 with G-Quadruplex DNAs of Human c-myc Promoter and Telomere Regions”:

Molecular target: T1, hORC1(413-511) (Homo sapiens, UniProt Q13415 413-511)
T1 sequence: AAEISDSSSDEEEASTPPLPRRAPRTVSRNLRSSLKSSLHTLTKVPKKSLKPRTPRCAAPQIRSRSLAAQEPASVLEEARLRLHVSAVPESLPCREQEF
Assay: fluorescence anisotropy; 100 mM KCl; FA: 20 mM HEPES-KOH pH 7.7, 100 mM KCl (or LiCl), 1 mM EDTA, 1 mM DTT, 25 C, 2 uM DNA, 1:1 fit; NMR: same buffer with 10% D2O, 10 uM DSS, 75 uM DNA, 25 C
Conditions: protein: recombinant, tags: N-terminal GST (pGEX-6P-1) removed with PreScission protease

[1] = label: 5'-FAM, G4, multiple folds, 1 strand

B1: dsDNA (dsDNA)
DNA 1: AAATTTAAAAAAAAAAATAATT
DNA 2: AATTATTTTTTTTTTTAAATTT
B1 was tested, and the Kd (label: 5'-FAM on strand 1, blunt) was 1910 nM.

B2: teloDNA (structured_DNA)
DNA: TTGGGTTAGGGTTAGGGTTAGGGA
B2 was tested, and the Kd (label: 5'-FAM (FA), label in NMR not clear, (3+1) G4 in K+, 1 strand) was 227 ± 23.6 nM.

B3: mtPu22 (structured_DNA)
DNA: TGAGGGTGGGTAGGGTGGGTAA
Binder B3 has a Kd (label: 5'-FAM (FA), label in NMR not clear, parallel G4, 1 strand) of 310 ± 39.2 nM.

B4: mtPu19 (structured_DNA)
DNA: TAGGGAGGGTAGGGAGGGT
B4 gave a Kd (label: 5'-FAM, parallel G4, 1 strand) of 446 ± 308 nM.

B5: wtPu22 (structured_DNA)
DNA: TGAGGGTGGGGAGGGTGGGGAA
B5 gave a Kd [1] of 166 nM.

B6: wtPu19 (structured_DNA)
DNA: TGGGGAGGGTGGGGAGGGT
B6 was tested, and the Kd [1] was 45.2 nM.
